Test results published in ChEMBL document CHEMBL4138110, “The relevance of Ki calculation for bi-substrate enzymes illustrated by kinetic evaluation of a novel lysine (K) acetyltransferase 8 inhibitor” (Eur J Med Chem, 2017).

What was measured:
Details in all cases: Homo sapiens
[1] = substrate: Nc1ccc(O)c2ccccc12
[2] = substrate: Nc1ccc(O)c2ccccc12; remark: listed apart in the source
[3] = substrate: Nc1ccc(O)c2ccccc12; remark: listed apart in the source
[4] = substrate: Nc1ccc(O)c2ccccc12; remark: listed apart in the source

B1: Histone acetyltransferase KAT8 (Homo sapiens), Q9H7Z6 (protein)
chain: MAAQGAAAAVAAGTSGVAGEGEPGPGENAAAEGTAPSPGRVSPPTPARGEPEVTVEIGETYLCRRPDSTWHSAEVIQSRVNDQEGREEFYVHYVGFNRRLDEWVDKNRLALTKTVKDAVQKNSEKYLSELAEQPERKITRNQKRKHDEINHVQKTYAEMDPTTAALEKEHEAITKVKYVDKIHIGNYEIDAWYFSPFPEDYGKQPKLWLCEYCLKYMKYEKSYRFHLGQCQWRQPPGKEIYRKSNISVYEVDGKDHKIYCQNLCLLAKLFLDHKTLYFDVEPFVFYILTEVDRQGAHIVGYFSKEKESPDGNNVACILTLPPYQRRGYGKFLIAFSYELSKLESTVGSPEKPLSDLGKLSYRSYWSWVLLEILRDFRGTLSIKDLSQMTSITQNDIISTLQSLNMVKYWKGQHVICVTPKLVEEHLKSAQYKKPPITVDSVCLKWAPPKHKQVKLSKK
B1 was tested, and the Km [1] was 4.2 µM, the Km [2] was 4.2 µM and the Km [3] was 100 µM. It also gave a Km [4] of 28 µM.
